From publication doi:10.1101/2022.10.27.514035, “Membrane curvature-generating proteins crucial for autophagosome formation” (bioRxiv, 2022) come the findings set out here.

The target of the experiment is T1, S. cerevisiae Atg40, SBP-tagged (S. cerevisiae, UniProt Q99325 1-256).
T1 construct: Atg40, ERphagy receptor of Saccharomyces cerevisiae; 'SBP-tagged full-length sjRop1, scAtg40': full-length is read as holding for both; also called scAtg40; not shown: SBP, C-terminal, kept
T1 sequence (looked up): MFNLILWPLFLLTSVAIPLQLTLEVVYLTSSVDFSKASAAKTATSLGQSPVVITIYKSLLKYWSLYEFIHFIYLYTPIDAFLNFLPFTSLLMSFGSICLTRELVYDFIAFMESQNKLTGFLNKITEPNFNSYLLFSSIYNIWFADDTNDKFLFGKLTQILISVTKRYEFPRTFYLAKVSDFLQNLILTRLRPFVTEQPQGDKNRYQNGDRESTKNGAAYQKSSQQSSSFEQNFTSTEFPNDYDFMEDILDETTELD
Briefly: pull-down; SBP-tagged protein held on streptavidin beads, incubated with purified Atg8 for 1 h at 4 °C in 25 mM HEPES/KOH pH 7.4, 150 mM NaCl, 0.05% DDM; eluate on SDS-PAGE, Coomassie blue. The settings on record: both partners purified.

B1: S. cerevisiae Atg8, His10-tagged (natural protein, UniProt P38182 1-117, looked up)
chain: MKSTFKSEYPFEKRKAESERIADRFKNRIPVICEKAEKSDIPEIDKRKYLVPADLTVGQFVYVIRKRIMLPPEKAIFIFVNDTLPPTAALMSAIYQEHKDKDGFLYVTYSGENTFGR
notes: Atg8, ubiquitin-like autophagy protein of Saccharomyces cerevisiae; also called scAtg8; source: E. coli, purified (Ni-NTA, SEC on Superdex 75)
For B1, the binding result is given as “binds”.
